{"source": "patent US20140323699A1", "about": "(CALIFORNIA INSTITUTE OF TECHNOLOGY, published 2014)", "biological_target": "T1, glycosylated synapsin I from olfactory bulb lysate (rat, UniProt P09951 1-704, limits assumed, Fucα(1-2)Gal glycosylated (sites not given))", "T1 construct": "Endogenous protein in tissue lysate, detected by Western blot with mouse anti-synapsin I ascites", "assay": "lectin affinity chromatography on UEAI-agarose, elution with 200 mM L-fucose, Western blot for synapsin I", "data": [{"binder": "UEAI lectin conjugated to agarose (Vector Laboratories) (other, UniProt P22972 1-243, looked up, conjugated to agarose) SDDLSFKFKNFSQNGKDLSFQGDASVIETGVLQLNKVGNNLPDETGGIARYIAPIHIWNCNTGEVASFITSFSFFMETSANPKAATDGLTFFLAPPDSPLRRAGGYFGLFEDTKDNDSSYQTVAVEFDTIGSPVNFDDPGFPHIGIDVNRVKSINAERWNKRYGLNNVANVEIIYEASSKTLTASLTYPSDQTSISVTSIVDLKEILPEWVSVGFSGGTYIGRQATHEVLNWYFTSNLINTNS", "values": [{"measurement": "binding result", "result": "no binding (tested: 500 µg lysate)"}]}]}
